Results on 26 sequences are retold here after the supplement of paper PMC9732359.

This series in a line: protein stability index of a GFP-peptide fusion (yeast GPS) (PSI 1-4); higher = more stable; sorted into four equal gates, so the index is relative within each strain. Summed up: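 Tiled 17-residue yeast protein peptides were fused downstream of GFP in a plasmid that also expresses Cherry, and the pooled library was carried in yeast. Mid-log cultures in leucine-free medium were sorted into four equal gates by GFP/Cherry fluorescence ratio, and plasmids from each gate were PCR-amplified and Illumina-sequenced, with reads assigned to strains by barcodes. The protein stability index for each peptide was each gate's read frequency times its gate number, summed.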

± gives the uncertainty stated by the source.

In the case of NIDSLKFNELVKLMKNI [BRR2], the protein stability index (doa10∆) turned out to be 1.37 ± 0.04, the protein stability index (pdr5∆) amounted to 1.63 ± 0.067, the protein stability index (san1∆) came to 1.5 ± 0.11 and the protein stability index (ubr1∆) is 1.8 ± 0.052.

With NIGTPSFNMAQIPQQLY [SNF5], the protein stability index is 1.93 ± 0.068 (doa10∆), 2.08 ± 0.072 (pdr5∆), 2.17 ± 0.056 (san1∆) and 2.04 ± 0.047 (ubr1∆).

In turn, NIIESIANFSRAGKYEL [YJR042W/NUP85] displayed a protein stability index (doa10∆) of 2.86 ± 0.087, a protein stability index (pdr5∆) of 2.96 ± 0.086, a protein stability index (san1∆) of 2.87 ± 0.051 and a protein stability index (ubr1∆) of 2.44 ± 0.042.

On to NIKNTNEEATPIPSSET [RRP6], for which the protein stability index worked out at 2.61 ± 0.049 (doa10∆), 2.98 ± 0.052 (pdr5∆), 2.44 ± 0.048 (san1∆) and 2.67 ± 0.056 (ubr1∆).

With NILFSLWKLLSTVKVSD [YLR018C/POM34], the protein stability index amounted to 1.76 ± 0.07 (doa10∆), 1.46 ± 0.058 (pdr5∆), 1.58 ± 0.12 (san1∆) and 1.55 ± 0.057 (ubr1∆).

Take NINNSSVAEKEEIRSQI [SWI3]: the protein stability index runs as follows: (doa10∆) 2.64 ± 0.072; (pdr5∆) 2.19 ± 0.077; (san1∆) 2.2 ± 0.075; (ubr1∆) 2.51 ± 0.059.

For NISNNLQKALTVKTNDE [RPN8], the protein stability index runs as follows: (doa10∆) 3.02 ± 0.16; (pdr5∆) 3 ± 0.11; (san1∆) 2.82 ± 0.14; (ubr1∆) 2.88 ± 0.067.

As for NISTNTNIHEPQYINYS [SSN2], the protein stability index by setting is: (doa10∆) 3.17 ± 0.067; (pdr5∆) 2.98 ± 0.078; (san1∆) 2.74 ± 0.069; (ubr1∆) 2.97 ± 0.078.

For the sequence NIYDQLRNKLIESNKLA [RRP6], the protein stability index (doa10∆) was 2.34 ± 0.073, the protein stability index (pdr5∆) was found to be 2.45 ± 0.084, the protein stability index (san1∆) was found to be 1.9 ± 0.09 and the protein stability index (ubr1∆) worked out at 2.22 ± 0.073.

Take NKEMETQRIMTNVIAFA [YLR018C/POM34]: the protein stability index is 2.33 ± 0.1 (doa10∆), 2.46 ± 0.07 (pdr5∆), 1.99 ± 0.15 (san1∆) and 2.46 ± 0.058 (ubr1∆).

For NKGAKAEDVALNEQVKK [NAS6], the protein stability index by setting is: (doa10∆) 2.98 ± 0.2; (pdr5∆) 2.96 ± 0.19; (san1∆) 2.77 ± 0.15; (ubr1∆) 3.1 ± 0.075.

In turn, NKGRAVYINPSGEKIDF [BRR2] yielded a protein stability index (doa10∆) of 2.98 ± 0.13, a protein stability index (pdr5∆) of 2.76 ± 0.1, a protein stability index (san1∆) of 2.91 ± 0.071 and a protein stability index (ubr1∆) of 3.17 ± 0.098.

As for NKLEKLNSLLTYIKSEI [SMC4], the protein stability index (doa10∆) worked out at 2.73 ± 0.061, the protein stability index (pdr5∆) is 2.32 ± 0.045, the protein stability index (san1∆) worked out at 2.66 ± 0.057 and the protein stability index (ubr1∆) is 2.87 ± 0.036.

For NKLNFIVDDKQEMIDIL [DIB1], the protein stability index (doa10∆) worked out at 3.37 ± 0.099, the protein stability index (pdr5∆) worked out at 3.01 ± 0.17, the protein stability index (san1∆) was 2.9 ± 0.15 and the protein stability index (ubr1∆) is 3 ± 0.12.

NKQPRNESFNRRISSMP [YAR002W/NUP60]: the protein stability index worked out at 2.62 ± 0.068 (doa10∆), 3.04 ± 0.07 (pdr5∆), 2.53 ± 0.078 (san1∆) and 2.99 ± 0.038 (ubr1∆).

On to NKSTSSEAEYSKDIETL [YIL149C/MLP2], for which the protein stability index reads like this: (doa10∆) 3.19 ± 0.089; (pdr5∆) 2.97 ± 0.099; (san1∆) 3.21 ± 0.062; (ubr1∆) 3.26 ± 0.072.

In the case of NKTAHLSIPGKSTPEGT [SNU114], the protein stability index was 2.94 ± 0.065 (doa10∆), 3.04 ± 0.061 (pdr5∆), 2.79 ± 0.048 (san1∆) and 3.01 ± 0.038 (ubr1∆).

In turn, NKTKAVDNTVPSTTLFN [YOR098C/NUP1] came in with a protein stability index (doa10∆) of 2.84 ± 0.087, a protein stability index (pdr5∆) of 2.58 ± 0.067, a protein stability index (san1∆) of 3.04 ± 0.054 and a protein stability index (ubr1∆) of 3.15 ± 0.055.

NKVVVNLNDAGLALQLF [RPN2]: the protein stability index reads like this: (doa10∆) 2.28 ± 0.084; (pdr5∆) 2.19 ± 0.12; (san1∆) 2.68 ± 0.12; (ubr1∆) 1.85 ± 0.091.

For NLCKIIEPFECVEISHI [RPN6], the protein stability index was 2.27 ± 0.12 (doa10∆), 2.09 ± 0.2 (pdr5∆) and 1.97 ± 0.11 (san1∆).

Turning to NLFKINSIDVPIRINST [YMR129W/POM152], the protein stability index amounted to 1.89 ± 0.044 (doa10∆), 2.2 ± 0.042 (pdr5∆), 2.02 ± 0.058 (san1∆) and 2.17 ± 0.033 (ubr1∆).

Consider NLGEYYAQIGDKDNAEK [RPN7], for which the protein stability index (doa10∆) came to 1.92 ± 0.056, the protein stability index (pdr5∆) was determined as 2.05 ± 0.075, the protein stability index (san1∆) stood at 2.49 ± 0.087 and the protein stability index (ubr1∆) amounted to 2.47 ± 0.053.

On to NLGIPKIAYRGVKDCQE [SSN2], for which the protein stability index is, setting by setting: (doa10∆) 1.49 ± 0.2; (pdr5∆) 1.58 ± 0.19; (san1∆) 1.54 ± 0.26; (ubr1∆) 1.13 ± 0.16.

For the sequence NLGRAVFWEIQSRVPTS [PRP8], the protein stability index is 2.05 ± 0.1 (doa10∆), 2.22 ± 0.17 (pdr5∆), 2.17 ± 0.092 (san1∆) and 2.4 ± 0.18 (ubr1∆).

Turning to NLHAEGWPKLQLGPQTP [ECM29], the protein stability index reads like this: (doa10∆) 2.43 ± 0.18; (pdr5∆) 2.74 ± 0.18; (ubr1∆) 2.9 ± 0.24.

NLLPKKSAKTAKASQEL [HTA2]: the protein stability index was determined as 2.92 ± 0.092 (doa10∆), 3.05 ± 0.12 (pdr5∆), 2.87 ± 0.11 (san1∆) and 3.18 ± 0.048 (ubr1∆).
